Measurements: publication PMC2174252 (The Journal of Cell Biology, 1999)

Target: mouse ZO-1 expressed in Sf21 insect cells (mouse, UniProt P39447 1-1745)
Assay: pull-down

mouse ZO-1 expressed in Sf21 insect cells, sequence (P39447 whole entry): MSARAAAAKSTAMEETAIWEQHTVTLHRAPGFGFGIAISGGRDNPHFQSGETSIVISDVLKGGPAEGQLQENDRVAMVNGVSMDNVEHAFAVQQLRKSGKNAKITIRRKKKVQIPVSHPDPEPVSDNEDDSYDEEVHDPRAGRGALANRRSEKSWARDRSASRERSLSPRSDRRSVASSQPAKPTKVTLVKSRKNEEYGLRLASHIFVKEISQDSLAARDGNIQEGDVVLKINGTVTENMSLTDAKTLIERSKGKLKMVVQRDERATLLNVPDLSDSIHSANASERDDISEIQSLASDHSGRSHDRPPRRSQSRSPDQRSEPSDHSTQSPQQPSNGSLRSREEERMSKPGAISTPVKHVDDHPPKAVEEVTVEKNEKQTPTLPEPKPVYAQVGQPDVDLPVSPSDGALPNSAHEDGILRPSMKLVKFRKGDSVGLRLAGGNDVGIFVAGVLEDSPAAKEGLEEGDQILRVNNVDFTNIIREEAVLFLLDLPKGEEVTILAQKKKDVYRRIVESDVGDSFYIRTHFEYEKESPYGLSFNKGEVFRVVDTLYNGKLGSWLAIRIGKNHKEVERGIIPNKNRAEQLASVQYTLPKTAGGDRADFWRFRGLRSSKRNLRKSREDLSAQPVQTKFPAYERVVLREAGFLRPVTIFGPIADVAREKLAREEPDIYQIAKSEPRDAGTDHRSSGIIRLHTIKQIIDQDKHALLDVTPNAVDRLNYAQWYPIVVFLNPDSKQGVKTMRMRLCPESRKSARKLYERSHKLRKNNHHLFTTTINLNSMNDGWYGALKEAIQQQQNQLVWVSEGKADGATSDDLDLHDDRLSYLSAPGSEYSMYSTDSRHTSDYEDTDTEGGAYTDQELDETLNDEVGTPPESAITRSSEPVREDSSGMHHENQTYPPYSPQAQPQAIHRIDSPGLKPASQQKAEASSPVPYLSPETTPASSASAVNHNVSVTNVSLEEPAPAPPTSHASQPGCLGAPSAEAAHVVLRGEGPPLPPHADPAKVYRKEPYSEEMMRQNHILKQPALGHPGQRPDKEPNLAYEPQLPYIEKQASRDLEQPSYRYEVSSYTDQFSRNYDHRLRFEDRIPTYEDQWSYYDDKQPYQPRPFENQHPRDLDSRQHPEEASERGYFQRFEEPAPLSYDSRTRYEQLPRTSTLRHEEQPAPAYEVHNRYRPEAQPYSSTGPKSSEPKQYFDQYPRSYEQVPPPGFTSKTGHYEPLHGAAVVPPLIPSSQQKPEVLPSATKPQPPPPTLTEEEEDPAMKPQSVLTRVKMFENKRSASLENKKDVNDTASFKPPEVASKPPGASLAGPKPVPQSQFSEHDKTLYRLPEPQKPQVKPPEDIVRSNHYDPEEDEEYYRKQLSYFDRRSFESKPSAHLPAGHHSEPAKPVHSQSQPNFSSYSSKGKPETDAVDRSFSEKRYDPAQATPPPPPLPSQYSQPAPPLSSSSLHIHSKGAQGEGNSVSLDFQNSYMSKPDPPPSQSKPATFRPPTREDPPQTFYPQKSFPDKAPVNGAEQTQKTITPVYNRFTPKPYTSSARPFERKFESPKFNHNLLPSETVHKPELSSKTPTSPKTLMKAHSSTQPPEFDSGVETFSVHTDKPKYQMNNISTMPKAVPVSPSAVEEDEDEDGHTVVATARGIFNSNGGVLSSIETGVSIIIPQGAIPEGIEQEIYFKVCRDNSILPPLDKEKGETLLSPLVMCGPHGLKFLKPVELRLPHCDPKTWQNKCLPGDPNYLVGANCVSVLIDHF

B1: GST-XC(1-378), GST fused to Xenopus laevis cingulin residues 1-378 (domain or fragment, UniProt Q9PTD7 1-378, looked up)
chain: MERDIYGDMADQHIPVGQGVQIRFIGDLKENGKPRGKRSKQDSYGVAVRVQGIDGQPFVVLNSGDKAKSSFGVQIKSQEPYLNASNTSPPNYQNYSSKPRGPSRSISSESELPENPYGSRGYRPSSSHYSSASDEEQKPRGNIRGSDGLSSLPRPLQASRREELRRSQSHSSLLEPDVEESYDYDHHYSERSSTLDTTYSQSSRDSAWSRSSQKKIDNGDYPSLGYRSATSQQSTSVSNKTKKNGLSTSSPSNQSNEDIDTKPLSSVDSLINKFDIKGQVRGRTARRSQALKDERKRSQSLDGRKNYHDTADSREIIVEKQNEVQTMREPVNASNRSFNRQTLERGDISKTRLTKEWLDQDREEPVILKQQRTVQSEF
  Kd: ~5 nM
